Values of other authors as cited in paper PMC6969543.

Biological target: Glu325 (UniProt position 325, TLHMFEVPFLL)
Assay: IR

Lactose permease (LacY), form used in earlier work (quoted values) (Escherichia coli)
pKa: 10.5 ± 0.1
